Several values for one entry are separate records, joined by “and”; a condition that tells them apart may be missing. Identical values can stand only once. Like-named read-outs stand apart in the source and are kept apart here.
Experiments:
Assay in all cases: cell-based or functional assay
[1] = target: H6-N′-cys-tTF219 (human) (UniProt P13726)
[2] = target: H6-tTF219-cys-C′ (human) (UniProt P13726)
[3] = target: H6-tTF220-cys-C′ (human) (UniProt P13726)
[4] = target: H6-tTF221-cys-C′ (human) (UniProt P13726)
Sequence of H6-tTF221-cys-C′ (human) (P13726 other isoform, or with tags, fused parts or gaps limits assumed): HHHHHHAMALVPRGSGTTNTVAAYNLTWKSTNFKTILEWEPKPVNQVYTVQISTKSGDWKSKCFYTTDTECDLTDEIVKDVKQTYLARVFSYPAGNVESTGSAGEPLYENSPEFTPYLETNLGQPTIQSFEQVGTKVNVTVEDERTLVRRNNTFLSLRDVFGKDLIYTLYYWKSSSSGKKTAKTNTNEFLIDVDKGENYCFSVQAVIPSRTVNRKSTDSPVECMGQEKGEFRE

[5] = target: IgG-H6-N′-cys-tTF219 (human) (UniProt P13726)
Sequence of IgG-H6-N′-cys-tTF219 (human) (P13726 other isoform, or with tags, fused parts or gaps limits assumed): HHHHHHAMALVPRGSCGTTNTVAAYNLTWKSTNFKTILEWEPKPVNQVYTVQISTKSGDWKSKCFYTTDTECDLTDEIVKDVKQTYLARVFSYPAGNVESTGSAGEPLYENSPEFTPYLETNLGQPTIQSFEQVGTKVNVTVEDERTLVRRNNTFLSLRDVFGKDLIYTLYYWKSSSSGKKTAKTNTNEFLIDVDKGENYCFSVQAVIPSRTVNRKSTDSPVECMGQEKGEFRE

[6] = target: tTF219, truncated Tissue Factor (extracellular domain of mature Tissue Factor, amino acids 1-219) (human) (UniProt P13726)
Sequence of tTF219, truncated Tissue Factor (extracellular domain of mature Tissue Factor, amino acids 1-219) (human) (P13726 other isoform, or with tags, fused parts or gaps): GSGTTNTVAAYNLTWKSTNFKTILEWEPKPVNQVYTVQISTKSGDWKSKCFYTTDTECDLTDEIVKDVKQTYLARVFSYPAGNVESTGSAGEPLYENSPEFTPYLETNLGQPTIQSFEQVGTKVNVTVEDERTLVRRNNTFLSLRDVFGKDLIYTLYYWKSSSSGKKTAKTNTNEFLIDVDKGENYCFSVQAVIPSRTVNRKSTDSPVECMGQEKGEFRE

[7] = target: tTF220-cys-C′ (human) (UniProt P13726)
Sequence of tTF220-cys-C′ (human) (P13726 other isoform, or with tags, fused parts or gaps): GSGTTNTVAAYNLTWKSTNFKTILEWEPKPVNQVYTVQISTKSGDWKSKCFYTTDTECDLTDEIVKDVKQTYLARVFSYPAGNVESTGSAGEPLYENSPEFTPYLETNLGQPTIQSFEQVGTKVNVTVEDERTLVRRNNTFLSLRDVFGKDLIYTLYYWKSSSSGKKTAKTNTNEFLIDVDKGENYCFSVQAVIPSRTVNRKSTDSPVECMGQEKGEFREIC

[8] = target: tTF221-cys-C′ (human) (UniProt P13726)
Sequence of tTF221-cys-C′ (human) (P13726 other isoform, or with tags, fused parts or gaps): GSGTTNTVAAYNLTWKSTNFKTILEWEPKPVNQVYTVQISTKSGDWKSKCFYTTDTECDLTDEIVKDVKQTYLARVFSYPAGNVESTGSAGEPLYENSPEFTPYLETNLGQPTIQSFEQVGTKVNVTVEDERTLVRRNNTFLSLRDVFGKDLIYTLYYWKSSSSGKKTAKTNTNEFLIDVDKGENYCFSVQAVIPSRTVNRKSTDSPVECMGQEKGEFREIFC

[9] = target: tTF219, truncated Tissue Factor (extracellular domain of mature Tissue Factor, amino acids 1-219) (human) (UniProt P13726); remark: listed apart in the source
[10] = target: H6-N′-cys-tTF219 dimer (human) (UniProt P13726)
[11] = target: H6-tTF221-cys-C′ (human) (UniProt P13726); remark: listed apart in the source
[12] = target: H6-tTF221-cys-C′ dimer (human) (UniProt P13726)
[13] = target: tTF219, truncated Tissue Factor (extracellular domain of mature Tissue Factor, amino acids 1-219) (human) (UniProt P13726); remark: listed apart in the source
[14] = target: H6-N′-cys-tTF219 (human) (UniProt P13726); remark: listed apart in the source
[15] = target: IgG-H6-N′-cys-tTF219 (human) (UniProt P13726); remark: listed apart in the source
[16] = target: tTF219, truncated Tissue Factor (extracellular domain of mature Tissue Factor, amino acids 1-219) (human) (UniProt P13726); remark: listed apart in the source

Sequence of H6-tTF219-cys-C′ (human) (P13726 other isoform, or with tags, fused parts or gaps): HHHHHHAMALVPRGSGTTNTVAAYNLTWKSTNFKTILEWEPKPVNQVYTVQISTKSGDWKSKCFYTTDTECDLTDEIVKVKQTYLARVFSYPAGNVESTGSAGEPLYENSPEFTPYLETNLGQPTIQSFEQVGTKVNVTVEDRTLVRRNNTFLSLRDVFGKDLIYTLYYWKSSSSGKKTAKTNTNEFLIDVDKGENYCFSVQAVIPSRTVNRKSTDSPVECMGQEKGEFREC

tTF concentration giving coagulation in 50 seconds [1]: 3 nM
tTF concentration giving coagulation in 50 seconds [2]: 3 nM
tTF concentration giving coagulation in 50 seconds [3]: 500 pM
tTF concentration giving coagulation in 50 seconds [4]: 500 pM
fold less active than H6-N′-cys-tTF219 at inducing Xa formation [5]: 2 fold
clotting time [6]: 60 s
clotting time (time for the first fibrin strands to form), mouse plasma on A20 cells [6]: 36 s
tTF concentration giving coagulation in 50 seconds [6]: 500 pM
tTF concentration giving coagulation in 50 seconds [7]: 500 pM
tTF concentration giving coagulation in 50 seconds [8]: 500 pM
tTF concentration giving coagulation in 50 seconds [9]: 3 nM
tTF concentration giving coagulation in 50 seconds [10]: 100 pM and 200 pM
tTF concentration giving coagulation in 50 seconds [11]: 1 nM
fold less active than H6-tTF221-cys-C′ monomer or tTF219 at inducing coagulation [12]: 4 fold
tTF concentration giving coagulation in 50 seconds [12]: 4 nM
tTF concentration giving coagulation in 50 seconds [13]: 100 pM and 200 pM
tTF concentration giving coagulation in 50 seconds [14]: 1 nM
fold reduction of coagulation inducing activity relative to unconjugated H6-N′-cys-tTF219 or tTF219 [15]: 5 fold
tTF concentration giving coagulation in 50 seconds [15]: 5 nM
tTF concentration giving coagulation in 50 seconds [16]: 1 nM
Substance: B21-2/10H10 bispecific antibody (Fab′ arm of the B21-2 antibody, specific for I-A^d, linked to the Fab′ arm of the 10H10 antibody, specific for tTF)

From US20030232753A1
